The record followed here is patent publication US20250270341A1 (Alector, published 2025).

Assay [1] has as its target T1, Full length mouse CD98hc on CHO cells (mouse, UniProt P10852 1-526).
T1 construct: CHO cells stably overexpressing it; also called CHO-mouse CD98hc; CHO-mCD98hc
T1 sequence: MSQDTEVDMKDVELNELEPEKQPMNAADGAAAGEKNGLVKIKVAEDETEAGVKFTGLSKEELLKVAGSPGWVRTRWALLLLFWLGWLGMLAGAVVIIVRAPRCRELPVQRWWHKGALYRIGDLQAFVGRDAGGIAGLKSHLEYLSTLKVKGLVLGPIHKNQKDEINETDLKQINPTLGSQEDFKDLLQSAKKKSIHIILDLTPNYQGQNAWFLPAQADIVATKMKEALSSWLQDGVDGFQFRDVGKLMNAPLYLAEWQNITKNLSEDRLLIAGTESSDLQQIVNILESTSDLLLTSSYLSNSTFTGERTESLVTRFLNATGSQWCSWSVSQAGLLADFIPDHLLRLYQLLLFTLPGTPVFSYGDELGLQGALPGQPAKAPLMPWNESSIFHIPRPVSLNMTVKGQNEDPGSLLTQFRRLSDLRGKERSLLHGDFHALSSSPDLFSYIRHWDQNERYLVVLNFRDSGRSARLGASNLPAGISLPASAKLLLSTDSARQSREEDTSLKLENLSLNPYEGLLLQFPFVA
Put plainly: FACS, hybridoma supernatant.

The target of another assay is T2, huCD98hc ECD Avi-His (human, UniProt P08195 105-529).
T2 construct: biotinylated on the Avi tag where captured on streptavidin; also called Human CD98-AVI-His; Human CD98hc-AVI-His
T2 sequence: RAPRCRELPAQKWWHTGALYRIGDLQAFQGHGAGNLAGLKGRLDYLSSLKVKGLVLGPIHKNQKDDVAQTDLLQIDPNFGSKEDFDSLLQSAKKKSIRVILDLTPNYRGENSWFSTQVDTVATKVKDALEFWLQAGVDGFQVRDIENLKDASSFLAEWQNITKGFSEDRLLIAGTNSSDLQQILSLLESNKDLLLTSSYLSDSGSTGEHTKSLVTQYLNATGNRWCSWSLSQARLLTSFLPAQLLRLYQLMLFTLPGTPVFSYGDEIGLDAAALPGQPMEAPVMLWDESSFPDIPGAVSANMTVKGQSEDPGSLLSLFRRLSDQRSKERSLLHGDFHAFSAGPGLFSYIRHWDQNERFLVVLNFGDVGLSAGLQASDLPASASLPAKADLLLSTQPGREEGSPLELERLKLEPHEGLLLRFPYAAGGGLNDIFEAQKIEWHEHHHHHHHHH
Put plainly: ELISA, hybridoma supernatant. Summed up: (§1)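 Binding of hybridoma supernatants (30 min, room temperature) was read as 450 nm absorbance after TMB development and sulfuric acid quench. Antigens, Avi-His-tagged CD98hc from human, cyno or mouse plus human TfR, were captured at 1 μg/ml onto streptavidin-coated wells for 1 h.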

The target of another assay is T3, muCD98hc ECD Avi-His (mouse, UniProt P10852 100-526).
T3 construct: biotinylated on the Avi tag where captured on streptavidin; also called Mouse CD98-AVI-His; Mouse CD98hc-AVI-His
T3 sequence: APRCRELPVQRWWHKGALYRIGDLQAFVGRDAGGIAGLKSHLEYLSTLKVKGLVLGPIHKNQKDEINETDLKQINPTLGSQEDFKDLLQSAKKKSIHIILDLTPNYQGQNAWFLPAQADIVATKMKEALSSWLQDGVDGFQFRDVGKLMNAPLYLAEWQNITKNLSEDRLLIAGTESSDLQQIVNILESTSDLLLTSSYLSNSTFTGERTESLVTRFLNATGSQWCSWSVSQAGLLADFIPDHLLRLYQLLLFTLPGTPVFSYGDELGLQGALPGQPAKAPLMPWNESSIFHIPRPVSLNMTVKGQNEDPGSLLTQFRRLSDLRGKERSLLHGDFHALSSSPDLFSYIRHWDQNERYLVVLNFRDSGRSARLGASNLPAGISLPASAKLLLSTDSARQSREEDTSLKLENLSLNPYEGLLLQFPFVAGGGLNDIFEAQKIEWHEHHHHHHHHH
Briefly: ELISA, hybridoma supernatant. The method, boiled down: as §1

For the next assay, the target named is T4, Cyno CD98hc ECD Avi-His (cynomolgus macaque, UniProt P08195 105-529 (human entry)).
T4 construct: biotinylated on the Avi tag where captured on streptavidin; also called Cyno CD98-AVI-His; Cyno CD98hc-AVI-His
T4 chain: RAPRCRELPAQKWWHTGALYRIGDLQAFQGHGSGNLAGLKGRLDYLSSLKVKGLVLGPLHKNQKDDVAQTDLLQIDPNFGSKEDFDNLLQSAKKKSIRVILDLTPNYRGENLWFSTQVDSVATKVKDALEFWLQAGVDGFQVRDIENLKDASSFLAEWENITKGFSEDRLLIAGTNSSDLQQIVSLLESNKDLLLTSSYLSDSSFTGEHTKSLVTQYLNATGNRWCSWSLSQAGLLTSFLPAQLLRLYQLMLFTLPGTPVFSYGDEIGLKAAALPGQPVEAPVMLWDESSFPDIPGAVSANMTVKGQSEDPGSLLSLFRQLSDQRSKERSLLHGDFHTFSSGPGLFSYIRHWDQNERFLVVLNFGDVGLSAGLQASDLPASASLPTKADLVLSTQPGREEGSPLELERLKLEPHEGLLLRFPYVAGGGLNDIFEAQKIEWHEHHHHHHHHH
Briefly: ELISA, hybridoma supernatant. Summed up: as §1
For orientation: In an ELISA, binding on a coated surface is turned into a signal by an enzyme label.

Assay [2] concerns the target T5, Human TfR-AVI-His (control) (human, UniProt P02786 89-760).
T5 construct: control protein; also called Avi-His-tagged human TfR; human transferrin receptor
Put plainly: ELISA, hybridoma supernatant. Summed up: as §1

T5 sequence (P02786 89-760 limits assumed): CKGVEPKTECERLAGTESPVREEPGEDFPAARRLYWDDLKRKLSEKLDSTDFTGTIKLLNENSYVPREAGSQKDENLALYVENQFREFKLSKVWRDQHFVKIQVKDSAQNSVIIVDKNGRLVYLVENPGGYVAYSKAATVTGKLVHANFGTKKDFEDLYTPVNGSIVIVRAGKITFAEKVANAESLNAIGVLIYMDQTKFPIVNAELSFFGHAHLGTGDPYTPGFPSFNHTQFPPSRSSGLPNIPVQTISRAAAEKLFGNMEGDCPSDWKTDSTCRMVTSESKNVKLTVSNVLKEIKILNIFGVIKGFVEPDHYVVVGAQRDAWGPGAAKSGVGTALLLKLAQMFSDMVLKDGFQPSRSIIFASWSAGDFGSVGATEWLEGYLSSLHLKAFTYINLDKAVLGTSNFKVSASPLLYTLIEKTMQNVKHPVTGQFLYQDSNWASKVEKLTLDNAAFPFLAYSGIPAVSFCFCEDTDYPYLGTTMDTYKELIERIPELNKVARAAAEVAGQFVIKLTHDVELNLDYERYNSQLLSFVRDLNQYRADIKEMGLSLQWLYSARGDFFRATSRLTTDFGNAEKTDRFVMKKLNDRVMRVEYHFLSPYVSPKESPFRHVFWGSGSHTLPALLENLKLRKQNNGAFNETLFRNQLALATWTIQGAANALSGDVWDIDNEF

B1: CD98HC.03.010 (antibody, V domains shown)
VH: EVQLQQSGTELVKPGASVKLSCTASGLDIKDTYLHWVKQRPEQGLEWIGKIDPANGNTKYNPKFQGKATITADTSSNTAYLQLSSLTSEDTAVHYCTTPYYSGSSYGDYWGQGTTLTVSS
VL: QIVLTQSPAIMSASPGEKVTLTCSASSSVSSSYLYWYQQKPGSSPKLWIYSTSNLASGVPARFSGSGSGTSYSLTISSMEAEDAASYFCHQWSRYPLTFGAGTKLELK
notes: hybridoma IgG
B1: the “MFI ratio over secondary antibody” value in assay [1] turned out to be 1. Moreover, the OD450 in the assay with huCD98hc ECD Avi-His came out at 1; with muCD98hc ECD Avi-His it was 0.0625; in the assay with Cyno CD98hc ECD Avi-His, 1.77; in assay [2], 0.0588.

B2: CD98HC.03.004 (antibody, V domains shown)
VH: DVQLQESGPGLVKPSQSLSLTCTVTGYSITNNYAWNWIRRFPGNKLEWMAYISYSGYTSYNPSLKSRISITRDTSKNQFFLQLNSVTTEDTATYYCTGYFYYYGGGSFDYWGQGTTLTVSS
VL: QAVVTQESALTTSPGETVTLTCRSSTGAVTTSNFANWVQEKPDHLFTGLIRGSNNRAPGVPARFSGSLIGDKAALTITGARTEDEAIYFCALWYSDHWVFGGGTKLTVL
notes: hybridoma IgG
With B2, in assay [1], the “MFI ratio over secondary antibody” value is 1. Also, the OD450 amounted to 1.49 with huCD98hc ECD Avi-His, 0.0938 with muCD98hc ECD Avi-His, 1.4 in the assay with Cyno CD98hc ECD Avi-His and 0.0905 in assay [2].
